Laboratory results published in paper doi:10.1101/2025.01.31.636011, “Discovery of a distinct BAM complex in the Bacteroidetes” (bioRxiv, 2025).

T1: PgBamA (PGN_0299) (Porphyromonas gingivalis (endogenous in …, UniProt B2RHH3 20-891))
T1 construct: also called P. gingivalis BamA; source: endogenous, P. gingivalis expressing His-tagged BamG, membranes solubilised in DDM
T1 sequence: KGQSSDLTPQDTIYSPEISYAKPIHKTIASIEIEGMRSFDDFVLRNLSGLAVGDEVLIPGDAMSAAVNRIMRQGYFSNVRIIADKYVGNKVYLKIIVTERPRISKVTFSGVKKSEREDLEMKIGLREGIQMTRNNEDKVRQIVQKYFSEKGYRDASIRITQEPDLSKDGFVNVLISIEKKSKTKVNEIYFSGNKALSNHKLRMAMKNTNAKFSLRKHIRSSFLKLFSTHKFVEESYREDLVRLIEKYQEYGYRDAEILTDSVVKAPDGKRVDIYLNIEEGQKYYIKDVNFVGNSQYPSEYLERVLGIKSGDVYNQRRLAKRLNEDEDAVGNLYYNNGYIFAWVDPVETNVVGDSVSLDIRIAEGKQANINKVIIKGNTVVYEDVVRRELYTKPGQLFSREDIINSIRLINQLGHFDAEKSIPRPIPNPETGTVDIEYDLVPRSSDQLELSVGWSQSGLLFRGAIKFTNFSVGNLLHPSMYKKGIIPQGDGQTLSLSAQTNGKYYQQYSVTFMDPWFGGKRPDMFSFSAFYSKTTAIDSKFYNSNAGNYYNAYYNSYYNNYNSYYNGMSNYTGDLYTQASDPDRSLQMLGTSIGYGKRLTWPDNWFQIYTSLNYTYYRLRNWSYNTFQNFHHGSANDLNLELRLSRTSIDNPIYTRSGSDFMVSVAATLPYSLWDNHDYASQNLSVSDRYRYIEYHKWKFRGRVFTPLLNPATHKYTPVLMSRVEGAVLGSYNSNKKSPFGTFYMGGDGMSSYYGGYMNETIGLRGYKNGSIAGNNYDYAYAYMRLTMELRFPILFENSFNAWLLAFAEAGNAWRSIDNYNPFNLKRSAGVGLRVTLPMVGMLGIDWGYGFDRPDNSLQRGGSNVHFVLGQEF

T2: BtBamA (Bt3725) with an N-terminal His7 tag (Bacteroides thetaiotaomicron, UniProt Q8A1E1 20-885)
T2 construct: also called BtBamAhis; BamAhis
T2 sequence (looked up): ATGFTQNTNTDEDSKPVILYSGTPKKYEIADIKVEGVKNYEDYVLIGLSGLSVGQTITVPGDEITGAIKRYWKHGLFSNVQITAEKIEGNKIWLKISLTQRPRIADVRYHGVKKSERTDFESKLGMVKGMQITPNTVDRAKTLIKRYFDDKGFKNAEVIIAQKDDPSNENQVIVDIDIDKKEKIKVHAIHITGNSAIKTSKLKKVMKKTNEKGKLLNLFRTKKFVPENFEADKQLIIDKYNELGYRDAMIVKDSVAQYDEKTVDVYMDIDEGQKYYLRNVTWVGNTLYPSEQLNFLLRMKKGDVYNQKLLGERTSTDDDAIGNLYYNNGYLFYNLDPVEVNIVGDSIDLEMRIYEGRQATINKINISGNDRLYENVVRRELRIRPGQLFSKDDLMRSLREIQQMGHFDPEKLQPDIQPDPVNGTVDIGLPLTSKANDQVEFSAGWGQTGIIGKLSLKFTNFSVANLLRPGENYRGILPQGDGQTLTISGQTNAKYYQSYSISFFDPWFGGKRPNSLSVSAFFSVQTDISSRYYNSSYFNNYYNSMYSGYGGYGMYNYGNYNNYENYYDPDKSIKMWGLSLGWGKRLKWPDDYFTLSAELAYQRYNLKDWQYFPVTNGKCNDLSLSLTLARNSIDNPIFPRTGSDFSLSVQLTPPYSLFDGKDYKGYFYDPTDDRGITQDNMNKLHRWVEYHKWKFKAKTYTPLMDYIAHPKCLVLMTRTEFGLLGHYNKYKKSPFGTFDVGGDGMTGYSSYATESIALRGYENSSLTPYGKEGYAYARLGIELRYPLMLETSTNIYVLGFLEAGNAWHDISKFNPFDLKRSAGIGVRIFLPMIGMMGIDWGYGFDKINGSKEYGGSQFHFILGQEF

B1: PgBamG (PGN_1735) with a C-terminal 7His-tag (natural protein)
chain: CDDDLSPIGGSIQPPSDPVSARVDTLEFSVKTIPMGDIYNRTNYTLLGDLTDPEYGDLKADYIMQFKSPRNFKFKYPPKDGKIDSVKLSINYDSWAGDSTSIMKVSIYKINKAIPPSYYSTQELASLLDETQIIASQTFKAGNDSAFHRVRIPLPNEIGQKIYDLSVNNPSVFDTQESFYNNVLGGLYVTTTTGTGVVLSVYNTQMAIFYSYKVAADSTATASETFVNTSESYQVNHIKNSQISHLLQENDSLSCVKSPAGVMTQLTISKEQFTDAFTSNLSSSLAWQIGEAQFNISASKPSEGLMLSPPSYLLLLPQDSVRNFFEQEQTELMQPRTAFLSTIYNIKKREYRFSNISRLLMEHIKNNTEKTPEGKPYITKDLVLVLLPVKRQVAGASNSLYTSQLNNFMFPSGVKLQLGKKNKTARIGVYSMTYTDN
modifications: tri-acylated lipid anchor; O-glycosylation, 7 sites
notes: also called His-tagged BamG; source: P. gingivalis expressing C-terminally His-tagged BamG (homologous recombination), membranes solubilised in DDM; not shown: His7, C-terminal, kept
B2: BtBamF (Bt4367) (natural protein, UniProt Q89ZL0 23-431, looked up)
chain: QNNTNSPYTRYGYGDLSDQSFGNSKAMGGIAFGLRDGAQINPTNPASYTAIDSLTFLFEGGVSLQNMNISGGGLKLNAKNASFDYLAMQFRLAPWMAMSVGLLPYSNVGYTVSDSQTTDNGLAYSRSFTGDGGLHQMYVGAGVKVLKNLSVGVNASYFWGDITRTRGMFYPGTSSYDSYQRKMVTSISDYKLDFGAQYTQALNKKSSLTIGAVYSPKHKLNNDYTSIVIMGASSSSYGTEYKDVLDATFELPNTFGVGFTYNYDKRLTVGADYSLQQWSKTNFGVVTSDENVRQDFNETFTYCDRTKISVGAEYIPNLIGRSYFAHIKYRLGAYYTTPYYKIDGKKASREYGVTAGFGLPVPRSRSILSISGQFVRVKGLETNMVNENIFRVSIGLTFNERWFFKRRVE
modifications: O-glycosylation (glycan on Ser75)
B3: BtBamI (Bt3612) (natural protein, UniProt Q8A1P7 20-196, looked up)
chain: CSETEEVGKYDNWRARNEAFIDSLANVYATASGRGGLERIEMLTAPGNYIYYKEMEPMTDHVVKAGNPKYTDYVKVYYKGTNILGEYFDGNFKGDNPVVDGKDPSEGDSPTTIFQVSGVITGWGEVLQRMEVGDRWKVYIPWDYAYGSSGTTGILGYSALVFDITLLDFANTEAELK
modifications: O-glycosylation (sites not given)
B4: BtBamG (Bt4306) (natural protein, UniProt Q89ZS0 18-542, looked up)
chain: CDDNTGGLGLGMFPGNDQNIKGKLSTFDVTTESVKTGDIYAKTNIGYIGKFTDETFGTYQAGFLAQLNCPDGLTFPEPYKEVTDASGNVISATGRMVVDDKDPENKDVTFIKDGNQIIGNIRAVELYLWYDSYFGDSLTACRLSVYELGGNGKETLNLDNAYYTDINPEDFYDSQNILGTKAYTAVDLSVKDSIRNLSTYVPSVHIAFKEDIATRVGGNILTAARKAKNADKEFNSQLFREAFQGIYVKSDYGDGTVLYIDQPQMNVVYKCYATDSITGKKLQKKDGSGKDSTYYSYRVFATTREVIQANQLKNDPERIDALIKEDKNTYLKSPAGIFTEATLPISDIQNELTGDTLNAVKLTFTNYNQTGDKKFGMAIPSTVMLVRKKFQDSFFKDNKLSDGVSSYLTSHTSSTNQYVFSNITKLVNACIAEKEEAKKNAGSSWDETKWLQENPDWNKVVLIPVLVTYDSSNTTTGQANIIRIQHDLKPGYVRLKGGSLGKTNPDYKLKLEVISTDFGLTTKSN
modifications: tri-acylated lipid anchor on the N-terminal cysteine; O-glycosylation (glycan on Ser309)
notes: also called Bt4306/BamG

Key:
Conditions in all cases: both partners purified
PgBamA (PGN_0299) = target: T1, PgBamA (PGN_0299); experiment: cryo-EM structure; PgBAM complex co-purified through C-terminally His-tagged PgBamG from P. gingivalis membranes, in DDM, 4.9 mg/ml
BtBamG (Bt4306) [1] = target: B4; experiment: cryo-EM structure
BtBamG (Bt4306) [2] = target: B4; experiment: cryo-EM structure; BtBAM complex co-purified through BtBamAhis from B. theta membranes, in DDM, 8 mg/ml; two 3D classes and a composite model
[3] = target: T2, BtBamA (Bt3725) with an N-terminal His7 …; experiment: as above

B1: binds (PgBamA (PGN_0299)).

B2: binds (BtBamG (Bt4306) [1]).

B3: binds (BtBamG (Bt4306) [2]).

B4: binds [3].
